Test results reported in publication PMC2838905.

Target: Dictyostelium myosin II (bipolar filaments) (Dictyostelium discoideum) (UniProt P08799)

B1: GST-B-Δ-WD, MHCK-B truncation lacking only the WD-repeat domain (amino acids 1-450) (domain or fragment)
chain: MIFKVWFSYEDEEVELSELTNDTTVSAIRKILHEGKIFRFPYGTSQTDLQIGKMLPSGSGGGATADSKFEKFKARNTLADIQYKVGDTLYVRVKKSKPTNDSLLPTLNIAFLDGSERAIKWEYDPYTTTAQWTCTATLVKVEPVPFAEGAFRKAYHTLDLSKSGASGRYVSKIGKKPTPRPSYFEDVKMQMIAKKWADKYNSFKPPKKIEFLQSCVLEFVDRTSSDLICGAEPYVEGQYRKYNNNSGFVSNDERNTPQSFSHFTYEHSNHQLLIIDIQGVGDHYTDPQIHTYDGVGFGIGNLGQKGFEKFLDTHKCNAICQYLNLQSINPKSEKSDCGTVPRPDLIFPDTSERDNNNNNNNNNNNNNNNNNNNSNNNNNNNSSISKSLVEISSGSKERNDRDSPSRQLFVSNDGNTLNTNKERSKSKSIDLEKPEILINNKKKESINLET
Question: With B1 as the binder, how does the phosphorylation of MHC in a kinase assay (50 nM kinase, 1.0 μM myosin II), against the full-length kinase (% of the full-length kinase) read?
Answer: 30
